Consider 1 substance from patent publication US20230190800A1.

This assay deals with CD48 (UniProt P09326). Briefly: cell-based or functional assay.
Chain of UniProt P09326 (P09326 27-220 limits assumed): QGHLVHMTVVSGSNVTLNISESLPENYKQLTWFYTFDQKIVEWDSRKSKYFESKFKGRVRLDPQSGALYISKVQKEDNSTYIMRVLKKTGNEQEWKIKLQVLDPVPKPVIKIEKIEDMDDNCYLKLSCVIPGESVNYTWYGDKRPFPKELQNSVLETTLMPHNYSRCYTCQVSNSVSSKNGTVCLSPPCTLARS

For “2B4 (CD244) (from UniProt Q9BZW8 22-370) (receptor)”, the NK cells expressing MIP-1α after incubation with S2 cells expressing B7H7 and CD48 was determined as 70%; the NK cells with at least 3 different responses after incubation with S2 cells expressing B7H7 and CD48 turned out to be 10%.
